B1: Fbx4G (Fbx4 GTPase domain, residues 162–387) (domain or fragment, human, UniProt Q9UKT5 162-387, looked up)
chain: GAVTSFLHSLIIQNEPRFAMFGPGLEELNTSLVLSLMSSEELCPTAGLPQRQIDGIGSGVNFQLNNQHKFNILILYSTTRKERDRAREEHTSAVNKMFSRHNEGDDQQGSRYSVIPQIQKVCEVVDGFIYVANAEAHKRHEWQDEFSHIMAMTDPAFGSSGRPLLVLSCISQGDVKRMPCFYLAHELHLNLLNHPWLVQDTEAETLTGFLNGIEWILEEVESKRAR
B2: TRF1_(TRFH) (TRFH domain of TRF1, residues 58–268), GST tag removed (domain or fragment, human, UniProt P54274 58-268, looked up)
chain: EEEEEDAGLVAEAEAVAAGWMLDFLCLSLCRAFRDGRSEDFRRTRNSAEAIIHGLSSLTACQLRTIYICQFLTRIAAGKTLDAQFENDERITPLESALMIWGSIEKEHDKLHEEIQNLIKIQAIAVCMENGNFKEAEEVFERIFGDPNSHMPFKSKLLMIISQKDTFHSFFQHFSYNHMMEKIKSYVNYVLSEKSSTFLMKAAAKVVESKR

The target of series [1] is B2. Put plainly: crystal structure.
The series “crystal structure” concerns the molecule itself. Put plainly: crystal structure.
Series [2] concerns the target B1. Put plainly: pull-down.

The results in this text go back to paper PMC6097615 (Developmental cell, 2010).

The term stoichiometry N denotes a count of units in the complex or per binding partner.

For B1, the “stoichiometry N” value in series [1] was 1 Fbx4G per TRF1_TRFH (printed as 2:2).

Regarding B2, the binding result in “crystal structure” is reported as “binds”.

B3: GST-TRF1_(TRFH) (domain or fragment, human, UniProt P54274 58-268, looked up)
chain: EEEEEDAGLVAEAEAVAAGWMLDFLCLSLCRAFRDGRSEDFRRTRNSAEAIIHGLSSLTACQLRTIYICQFLTRIAAGKTLDAQFENDERITPLESALMIWGSIEKEHDKLHEEIQNLIKIQAIAVCMENGNFKEAEEVFERIFGDPNSHMPFKSKLLMIISQKDTFHSFFQHFSYNHMMEKIKSYVNYVLSEKSSTFLMKAAAKVVESKR
For B3, the binding result in series [2] is “binds”.
